# Assay results: patent publication US20190263898A1 (UNIVERSITE GRENOBLE ALPES, published 2019)
# Ends that are not written are not given here.
# T1: truncated Tau protein in fiber form (polymerized R3 peptide) (also: polymerized (fiber form))
# T1 construct: also called R3 peptide fibers; Mimetics (the R3 region of polymerized Tau)
# T1 peptide: VQIVYKPVDLSKVTSKCG
# Experiments:
# [1] = molecular target: T1, truncated Tau protein in fiber form …; assay: ELISA, unlabeled 2C5 titrated on polymers of the R3 sequence of Tau (R3 Fibers), PBS with 1% BSA, pH 7.5; PBS wells as control
# Protocol: (§1) The ELISAs are carried out before (FIG. 5) and after (FIG. 6) radiolabeling. It is noted that, after radiolabeling, the ligand retains good affinity for its target (FIG. 6).
# [2] = molecular target: T2, Tau protein in fiber form (preparation of htau40 enriched with Tau fibers, 72 h fibrillation with heparin) (Homo sapiens (Human), UniProt P10636 2-758); assay: ELISA, 2C5 titrated on a preparation enriched with Tau fibers (Tau-F)
# T2 construct: Fibrillar aggregate of full-length htau40; also called Tau-F (Tau fibers); the fibers
# T2 sequence (P10636 other isoform, or with tags, fused parts or gaps limits assumed): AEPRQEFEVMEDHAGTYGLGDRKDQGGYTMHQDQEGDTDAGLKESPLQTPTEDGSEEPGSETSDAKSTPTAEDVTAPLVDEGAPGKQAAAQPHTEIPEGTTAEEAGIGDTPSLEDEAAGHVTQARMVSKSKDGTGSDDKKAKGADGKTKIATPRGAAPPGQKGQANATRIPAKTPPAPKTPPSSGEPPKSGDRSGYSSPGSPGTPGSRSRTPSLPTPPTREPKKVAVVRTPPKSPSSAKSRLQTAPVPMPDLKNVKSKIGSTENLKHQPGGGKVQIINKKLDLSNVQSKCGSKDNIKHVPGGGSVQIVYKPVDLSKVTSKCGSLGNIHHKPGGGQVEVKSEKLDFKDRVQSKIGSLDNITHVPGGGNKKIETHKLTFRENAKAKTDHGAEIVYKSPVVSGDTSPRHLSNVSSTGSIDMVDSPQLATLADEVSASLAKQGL
# [3] = molecular target: T3, Tau protein in oligomer form (preparation of htau40 enriched with Tau oligomers, 48 h fibrillation with … (Homo sapiens (Human), UniProt P10636 2-758)); assay: ELISA on preparation enriched with Tau oligomers
# T3 construct: Oligomeric aggregate of full-length htau40; also called the oligomers; low-molecular-weight tau polymers
# T3 sequence (P10636 other isoform, or with tags, fused parts or gaps limits assumed): as above
# [4] = molecular target: T2, Tau protein in fiber form (preparation …); assay: ELISA on preparation enriched with Tau fibers
# [5] = molecular target: T1, truncated Tau protein in fiber form …; assay: ELISA, 2C5 titrated on polymerized R3 peptide (Mimes)
# [6] = molecular target: T3, Tau protein in oligomer form …; assay: ELISA, 2C5 titrated on a preparation enriched with Tau oligomers (Tau-O)
# [7] = molecular target: T4, native Tau protein (monomeric form) (Homo sapiens (Human), UniProt P10636 2-758); assay: ELISA, 2C5 titrated on native Tau (Tau-N)
# T4 construct: also called Tau-N (native taus); Tau in monomer form
# T4 sequence (P10636 other isoform, or with tags, fused parts or gaps limits assumed): as above
# [8] = molecular target: T1, truncated Tau protein in fiber form …; assay: ELISA on polymerized R3 peptide
# [9] = molecular target: T1, truncated Tau protein in fiber form …; assay: ELISA-format assay with 2C5 radiolabeled with iodine 125 on polymers of the R3 sequence of Tau, CPM readout (sheet title: RIA 125I 2C5), PBS with 1% BSA, pH 7.5; PBS wells as control
# Protocol: as §1
Kd [1] [nM],Kd [2] [nM],Kd [3] [nM],Kd [4] [nM],EC50 (read off the curve) [5] [nM],Kd [5] [nM],Kd [6] [nM],Kd [7] [nM],Kd [8] [nM],Kd [9] [nM],Binder
14.4,5.02,5,6,~50,51.8,6.28,1790,50,–,"2C5 nanobody (VHH) with C-terminal myc and six histidine residues tag (VHH, also called 2C5 Nb; 2C5 (VHH)) VHH: QVQLVQSGGGLVQAGGSLRLSCAASGRTFSSDTLAWFRQAPGKEREFVASISPSGGVTYYEDSVKGRFTISRDNSKNTVLLQMNSLTPEDTAVYYCNRDPKYGNTRYWGQGTQVTVSS"
–,–,–,–,–,–,–,–,–,162,"2C5 nanobody radiolabeled with iodine 125 (VHH, radiolabeled with iodine 125 (site not stated)) VHH: QVQLVQSGGGLVQAGGSLRLSCAASGRTFSSDTLAWFRQAPGKEREFVASISPSGGVTYYEDSVKGRFTISRDNSKNTVLLQMNSLTPEDTAVYYCNRDPKYGNTRYWGQGTQVTVSS"
